Target: T1, AgrAC (AgrA C-terminal LytTR domain) (Staphylococcus aureus, UniProt P0A0I7 137-238)
T1 sequence: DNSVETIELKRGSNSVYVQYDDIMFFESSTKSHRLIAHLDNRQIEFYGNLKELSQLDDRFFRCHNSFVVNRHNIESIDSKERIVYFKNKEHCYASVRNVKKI
Assay: EMSA

B1: 19-bp AgrA target DNA duplex (dsDNA)
DNA 1: ATTTAACAGTTAAGTATTT
DNA 2: AAATACTTAACTGTTAAAT
binding result: binds

Source: publication PMC3525768
